We go through four molecules from paper PMC8216282, “Structural basis for the dynamics of human methionyl-tRNA synthetase in multi-tRNA synthetase complexes” (Nucleic Acids Research, 2021).

Data set [1] has as its target T1, AIMP3 with the nanoluciferase large subunit at its N-terminus (LgBit-AIMP3) (human, UniProt O43324 1-174).
T1 construct: AIMP3, human; source: CHO-K1 cells, transfected, in live cells; not shown: LgBit (NanoLuc large subunit), N-terminal, kept
T1 sequence (looked up): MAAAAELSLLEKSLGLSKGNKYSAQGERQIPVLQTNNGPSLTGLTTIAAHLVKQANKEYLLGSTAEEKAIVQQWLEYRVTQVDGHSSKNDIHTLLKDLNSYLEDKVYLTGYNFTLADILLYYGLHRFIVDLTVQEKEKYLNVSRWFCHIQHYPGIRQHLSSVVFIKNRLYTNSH
Nature of the data set: split reporter (BiFC, NanoBiT); NanoBiT; LgBit on the N- or C-terminus of AIMP3, SmBit on the N- or C-terminus of MRS or on AIMP3; co-expressed in CHO-K1 cells; luminescence measured with cell-permeable substrate. Conditions: partners not purified.

Data set [2] addresses T2, MRS221-900 (methionyl-tRNA synthetase without N-terminal GST domain) (human, UniProt P56192 221-900).
T2 sequence: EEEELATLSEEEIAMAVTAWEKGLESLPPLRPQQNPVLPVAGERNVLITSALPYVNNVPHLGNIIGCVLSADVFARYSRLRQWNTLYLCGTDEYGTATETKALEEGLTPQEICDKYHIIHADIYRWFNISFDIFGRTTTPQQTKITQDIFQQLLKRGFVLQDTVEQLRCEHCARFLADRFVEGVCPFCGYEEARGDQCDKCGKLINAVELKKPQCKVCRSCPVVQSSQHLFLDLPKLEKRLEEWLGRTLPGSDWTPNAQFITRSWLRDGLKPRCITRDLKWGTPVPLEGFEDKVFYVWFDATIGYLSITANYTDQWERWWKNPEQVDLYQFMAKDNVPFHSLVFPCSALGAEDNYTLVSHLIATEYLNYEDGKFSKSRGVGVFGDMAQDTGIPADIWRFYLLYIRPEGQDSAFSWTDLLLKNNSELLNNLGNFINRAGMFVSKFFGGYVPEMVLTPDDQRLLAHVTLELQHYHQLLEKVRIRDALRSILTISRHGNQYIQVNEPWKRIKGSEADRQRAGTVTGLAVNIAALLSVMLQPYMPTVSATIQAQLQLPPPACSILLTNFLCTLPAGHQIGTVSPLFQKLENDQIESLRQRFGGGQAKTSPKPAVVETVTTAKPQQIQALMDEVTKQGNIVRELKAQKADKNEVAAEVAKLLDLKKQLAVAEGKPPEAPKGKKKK
The data set is described as follows: MST; labeled RNA (80 nM); MST: PBS, 1-100 uM protein, 80 nM 6-FAM-RNA, temperature not stated; pull-down: 50 mM Tris-HCl pH 7.5, 150 mM NaCl, Ni-NTA (yeast total tRNA pool not listed). The note with it: protein: recombinant; tags: hexa-His; tRNA fold.

The target of data set [3] is T3, MRS full-length (in MRS-AIMP3 complex);AIMP3 (in MRS-AIMP3 complex) (human;human?, UniProt P56192;O43324 1-900;1-174, |).
T3 sequence 1: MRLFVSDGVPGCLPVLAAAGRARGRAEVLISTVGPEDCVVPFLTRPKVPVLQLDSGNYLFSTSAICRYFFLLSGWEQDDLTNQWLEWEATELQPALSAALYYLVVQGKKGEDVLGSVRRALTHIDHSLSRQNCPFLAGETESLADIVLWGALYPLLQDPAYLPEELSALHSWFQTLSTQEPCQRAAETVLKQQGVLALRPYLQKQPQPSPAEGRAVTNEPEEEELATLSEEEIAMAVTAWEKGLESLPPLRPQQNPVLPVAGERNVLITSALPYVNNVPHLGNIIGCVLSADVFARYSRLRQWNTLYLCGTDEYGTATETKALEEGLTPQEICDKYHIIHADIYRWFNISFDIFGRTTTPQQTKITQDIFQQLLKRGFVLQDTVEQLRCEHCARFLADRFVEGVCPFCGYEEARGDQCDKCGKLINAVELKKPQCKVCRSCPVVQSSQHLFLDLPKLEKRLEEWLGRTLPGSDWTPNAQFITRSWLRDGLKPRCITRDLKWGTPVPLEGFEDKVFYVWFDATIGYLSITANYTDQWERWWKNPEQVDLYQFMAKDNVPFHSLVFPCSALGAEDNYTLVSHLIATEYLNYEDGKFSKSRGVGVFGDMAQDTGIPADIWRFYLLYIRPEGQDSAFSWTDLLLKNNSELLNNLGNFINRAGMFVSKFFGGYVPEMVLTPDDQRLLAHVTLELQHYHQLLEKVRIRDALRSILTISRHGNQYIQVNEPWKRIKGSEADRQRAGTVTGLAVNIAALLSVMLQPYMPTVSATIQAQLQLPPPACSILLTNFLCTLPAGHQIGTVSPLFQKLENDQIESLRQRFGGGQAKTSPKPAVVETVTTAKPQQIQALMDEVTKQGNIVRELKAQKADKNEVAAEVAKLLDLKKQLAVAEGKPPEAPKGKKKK
T3 sequence 2: T1 sequence (looked up)
Described as above. Conditions: protein: recombinant;recombinant; copies: 1;1; tRNA fold.

Data set [4] deals with T2, MRS221-900 (methionyl-tRNA synthetase …). Nature of the data set: pull-down (Ni-NTA, fluorescence); almost 2-fold; MST: PBS, 1-100 uM protein, 80 nM 6-FAM-RNA, temperature not stated; pull-down: 50 mM Tris-HCl pH 7.5, 150 mM NaCl, Ni-NTA (yeast total tRNA pool not listed). Conditions: protein: recombinant, tags: hexa-His.
The target is the same in data set [5]. Nature of the data set: MST; protein labeled with Red-tris-NTA, unlabeled RNA; MST: PBS, 1-100 uM protein, 80 nM 6-FAM-RNA, temperature not stated; pull-down: 50 mM Tris-HCl pH 7.5, 150 mM NaCl, Ni-NTA (yeast total tRNA pool not listed). The note with it: protein: recombinant; tags: hexa-His; label: none (Results); Methods text says 6-FAM-RNA for this assay too; tRNA fold.

The target in data set [6] is T3, MRS full-length (in MRS-AIMP3 …). The description is as above. Conditions: protein: recombinant;recombinant; copies: 1;1; label: none (Results); Methods text says 6-FAM-RNA for this assay too; tRNA fold.
For data set [7], the target named is T4, human MRS without the C-terminal WHEP domain (MRS 1-834) (human, UniProt P56192 1-834).
T4 construct: methionyl-tRNA synthetase, cytosolic, human, residues 1-834; source: E. coli BL21 (DE3), purified (Ni-NTA, size-exclusion chromatography); as complex with AIMP3
T4 sequence (looked up): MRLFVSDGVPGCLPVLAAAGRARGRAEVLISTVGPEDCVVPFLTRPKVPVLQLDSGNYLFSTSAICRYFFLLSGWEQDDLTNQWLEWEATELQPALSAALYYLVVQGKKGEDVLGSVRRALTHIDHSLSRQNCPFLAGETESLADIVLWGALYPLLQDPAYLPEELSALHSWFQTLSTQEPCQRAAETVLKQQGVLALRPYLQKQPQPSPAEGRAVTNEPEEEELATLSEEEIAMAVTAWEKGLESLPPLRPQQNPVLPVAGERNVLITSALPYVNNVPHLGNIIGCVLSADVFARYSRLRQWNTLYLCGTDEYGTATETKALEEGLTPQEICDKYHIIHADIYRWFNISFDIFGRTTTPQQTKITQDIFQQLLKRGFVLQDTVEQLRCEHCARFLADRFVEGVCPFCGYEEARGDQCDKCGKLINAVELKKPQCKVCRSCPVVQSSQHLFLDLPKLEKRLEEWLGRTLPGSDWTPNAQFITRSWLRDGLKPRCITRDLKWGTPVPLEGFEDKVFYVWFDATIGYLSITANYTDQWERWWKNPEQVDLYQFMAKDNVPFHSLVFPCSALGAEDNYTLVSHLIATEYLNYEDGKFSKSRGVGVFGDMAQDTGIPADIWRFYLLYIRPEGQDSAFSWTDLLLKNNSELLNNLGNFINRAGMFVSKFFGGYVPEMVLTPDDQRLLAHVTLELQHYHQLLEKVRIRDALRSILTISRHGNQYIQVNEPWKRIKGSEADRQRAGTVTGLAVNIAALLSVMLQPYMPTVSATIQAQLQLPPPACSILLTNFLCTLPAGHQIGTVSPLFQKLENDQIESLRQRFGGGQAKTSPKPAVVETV
Nature of the data set: SEC; Superdex 200 10/300 column, Tris-HCl pH 7.5, 150 mM NaCl; molecular weights from a calibration curve of standards. Conditions: both partners purified. On the technique in general: Size exclusion chromatography separates by hydrodynamic size, large species first.

For data set [8], the target named is T5, human cytosolic methionyl-tRNA synthetase, full length (MRS 1-900) (human, UniProt P56192 1-900).
T5 construct: methionyl-tRNA synthetase, cytosolic, human, residues 1-900 (900-residue protein); source: recombinant from pET30a or pQE80L plasmids, obtained as MRS-AIMP3 complex by co-purification
T5 sequence (looked up): T3 sequence 1
Described as above. Conditions: both partners purified.

Data set [9] concerns the target T6, extended GST domain of human MRS (MRS 1-224) (human, UniProt P56192 1-224).
T6 construct: methionyl-tRNA synthetase, cytosolic, human, residues 1-224 (GST domain and first part of the linker); also called MRSGST; source: recombinant, obtained as MRS_(1-224)-AIMP3 complex by co-purification
T6 sequence (looked up): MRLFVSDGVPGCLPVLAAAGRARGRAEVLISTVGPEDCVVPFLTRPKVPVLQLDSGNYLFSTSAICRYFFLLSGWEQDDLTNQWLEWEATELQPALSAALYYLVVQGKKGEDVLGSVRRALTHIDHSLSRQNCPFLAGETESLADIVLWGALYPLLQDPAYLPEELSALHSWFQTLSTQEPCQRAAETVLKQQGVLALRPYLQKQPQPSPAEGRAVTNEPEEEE
The data set is described as follows: crystal structure; MRS_(1-224)-AIMP3 complex crystallised in 20% PEG 8000, 0.1 M HEPES pH 7.5; molecular replacement; 2.0 A. Conditions: both partners purified.

By Kd is commonly meant the concentration at which binding is half-saturated.

B1: MRS with the nanoluciferase small subunit at its N-terminus (SmBit-MRS) (enzyme, human, UniProt P56192 1-900, looked up)
chain: T3 sequence 1
notes: methionyl-tRNA synthetase, cytosolic, human; source: CHO-K1 cells, transfected, in live cells; not shown: SmBit (NanoLuc small subunit), N-terminal, kept
As for B1, in data set [1], the “fold increase of luciferase activity over background” value was over 120 fold.

B2: 6-FAM synthetic elongator tRNAMet (structured_RNA)
RNA: GCCUCGUUAGCGCAGUAGGUAGCGCGUCAGUCUCAUAAUCUGAAGGUCGUGAGUUCGAUCCUCACACGGGGCA
modifications: none stated (synthetic RNA)
For the molecule B2, the values for the Kd in [2] and in data set [3] were 12.8 µM and 31.6 µM, respectively. The binding signal in data set [4] was about 2 fold vs MRS-AIMP3 complex.

B3: unlabeled synthetic elongator tRNAMet (structured_RNA)
RNA: B2 RNA
modifications: none stated (synthetic RNA)
B3: the dissociation constant Kd in data set [5] was determined as 21.6 µM; in data set [6], 60.2 µM.

B4: AIMP3 (AARS-interacting multifunctional protein 3) (natural protein, human)
chain: T1 sequence (looked up)
notes: AIMP3, human; 'Genes for full-length human MRS (residues 1-900) and AIMP3' were cloned; the earlier structure (PDB 4bvx) used AIMP3 1-169; source: recombinant from pET30a or pQE80L plasmids, co-purified with MRS or MRS_(1-224)
Regarding B4, the binding result in data set [7], in [8] and in [9] was “binds” in each case.
